B1: NGF: mouse 2.55 NGF, nerve growth factor (protein, UniProt P01139 122-241, looked up)
Beta-nerve growth factor: SSTHPVFHMGEFSVCDSVSVWVGDKTTATDIKGKEVTVLAEVNINNSVFRQYFFETKCRASNPVESGCRGIDSKHWNSYCTTTHTFVKALTTDEKQAAWRFIRIDTACVCVLSRKATRRG
B2: BDNF: brain-derived neurotrophic factor (protein, UniProt P23560 19-247, looked up)
Neurotrophic factor BDNF …: APMKEANIRGQGGLAYPGVRTHGTLESVNGPKAGSRGLTSLADTFEHVIEELLDEDQKVRPNEENNKDADLYTSRVMLSSQVPLEPPLLFLLEEYKNYLDAANMSMRVRRHSDPARRGELSVCDSISEWVTAADKKTAVDMSGGTVTVLEKVPVSKGQLKQYFYETKCNPMGYTKEGCRGIDKRHWNSQCRTTQSYVRALTMDSKKRIGWRFIRIDTSCVCTLTIKRGR

Assays:
Assay type in all cases: cell-based, rat
[1] = system: c-fos mRNA (Trk receptor tyrosine kinase signaling); experiment: RT-PCR analysis of neurotrophin-dependent c-fos induction; settings: for induction of c-fos mRNA: proliferating controls treated with neurotrophin
Method: (§1) Cell Culture. For proliferating conditions, clonal stem cells (AP14) were cultured in Dulbecco's Modified Eagles Medium/Ham's F12 (DMEM/F12, 1:1) containing N2 supplement (Gibco BRL, Gaithersburg, Md.) and 20 ng/ml rhFGF-2 (provided by A. Baird, Prizm Pharmaceuticals Inc., La Jolla, Calif.). Culture dishes (Becton Dickinsin Labware, Lincoln Park, N.J.) were coated with polyomithine and mouse laminin as previously described by Ray, et al., Proliferation, differentiation and long-term culture of primary hippocampal neurons, Proc Natl Acad Sci USA 90:3602-3606 (1993). For differentiation experiments, cells were plated into polyornithine/laminin coated glass chamber slides (Nunc, Naperville, Ill.) at a density of 2.5—103 per cm2. The cells were incubated for 24 hrs in normal N2 medium containing 20 ng/ml FGF-2, and then the medium was replaced by N2 medium containing 0.5% […] (FBS) and 0.01% DMSO (control solvent) or […] all-trans retinoic acid (Sigma, St. Louis, Mo.). For further differentiation, the medium was replaced by N2 medium containing 0.5% FBS and one of the following: sterile water (control solvent), mouse 2.55 NGF (50 ng/ml, Boehringer Mannheim, Indianapolis, Ind.), rhBDNF (20 ng/ml, Alomone Labs, Jerusalem, Israel), rhNT-3 (40 ng/ml, Genentech, South San Francisco, Calif.). The medium was replaced every two days. For inhibition of the tyrosine kinase activity of the Trk receptors, K-252a (100 nM, Calbiochem, San Diego, Calif.) was added to the medium.
Reverse Transcription-PCR Analysis. Total RNA from stem cells was isolated using RNeasy Total RNA Kits (Qiagen, Chatsworth, Calif.) according to manufacturer's instructions. Fifty nanograms of total RNA was reverse transcribed using avian myeloblastosis virus reverse transcriptase (Promega, Madison, Wis.) with random hexamers ([…]) as primers in a […] reaction mixture. For PCR amplification, two sets of specific oligonucleotide pairs ([…]) were used: one directed to the transcript of interest, and one for a constitutively expressed transcript, either ribosomal protein L27 or L27a. Reactions were performed in a […] reaction mixture containing 10 mM Tris-Cl (pH 8.4), 50 mm KCl, 1.5 mM MgC12, […] each of the four dNTPs, 2 mCi of [a-32P]dCTP and 5 units of Taq polymerase (Promega) using a thermal cycler (Perkin-Elmer, Foster City, Calif.) with a regimen of 1 min at 94° C., 2 min at 60° C. (55° C. for trk receptors) and 2 min at 72° C. for 23 cycles Fifty microliters of each reaction was analyzed by electrophoresis on 8% polyacrylamide gels followed by autoradiography. […] Under these conditions, the L27 amplification product was directly proportional to the amount of input RNA, up to 50 ng total RNA. Oligonucleotide primers used are as follows: […]
RA treatment also results in neurotrophin-dependent induction of c-fos. Transient and rapid induction of immediate early genes such as c-fos is a well-characterized response to extracellular stimuli in neural cells. c-fos is induced after neurotrophin treatment in cultured […] hippocampal or cortical cells and the signaling cascade following c-fos induction is considered to be integral to subsequent steps in differentiation. To determine whether upregulation of mRNAs for trk receptors and p75NGFR observed in the stem cell cultures results in the acquisition of functional Trk-dependent stimulation of c-fos, mRNA was examined by RT-PCR analysis after stimulating RA-treated cells with neurotrophins. […]

ACSC cultures = experiment: Neuronal transmitter phenotype after RA priming and neurotrophin treatment (GABA, TH, calbindin, AChE); settings: neurotrophin after 6 days RA
Method: as §1
Immunofluorescence. An immunofluorescent staining was performed as previously described (Gage F H, Ray J, Fisher L J (1995a) Isolation, characterization, and use of stem cells from the CNS. Annu Rev Neurosci 18: 159-192. or Gage F H, Coates P W, Palmer T D, Kuhn H G, Fisher L J, Suhonen J O, Peterson D A, Suhr S T, Ray J (1995b) Survival and differentiation of adult neuronal progenitor cells transplanted to the adult brain. Proc Natl Acad Sci USA 92:11879-11883.) Briefly, after fixation with 4% paraformaldehyde in PBS, cells were incubated with primary antibodies overnight at […]. Then the cells were incubated for 1 hr with secondary antibodies (Jackson Immunoresearch) conjugated to fluorescein isothiocyanate, or cyanin-3. Primary antibody concentrations used are as follows (mo=mouse monoclonal, rb=rabbit polyclonal, gp=guinea pig polyclonal): mo a-MAP2abc, 1:5000 (Sigma), mo a-MAP2ab, 1:500 (Sigma), mo a-p75NGFR, 1:10 (192-IgG hybridoma supernatant, a gift from C. E. Chandler, Stanford Univ., Stanford, Calif.), rb a-c-Fos (4),1:4000 (Santa Cruz Biotechnology, Santa Cruz, Calif.), gp a-GFAP, 1:500 (Advanced Immunochemicals, Long Beach, Calif.), rb a-GABA, 1:5000 (Sigma), mo a-TH, 1:500 (Boehringer Mannheim), rb a-calbindin 1:1000 (SWant, Bellinzona, Switzerland). Labeled cells were visualized using confocal scanning laser microscopy (Zeiss Axiovert, Thornwood, N.Y. and Bio-Rad MRC1000, Hemel Hempstead, UK) and color images were generated using Adobe Photoshop (Adobe Systems, Mountain View, Calif.). Both the average percentage and the absolute number +/− SEM of immunofluorescent cells were determined by counting 10 or 50 high power fields (20×) visualized under fluorescence. The total number of cells was counted using nuclear counterstaining with 4′,6diamidino-2-phenylindole (DAPI, Sigma). Statistical analyses were carried out using ANOVA test.
Histochemical Staining for AChE. Cholinergic cells were identified by histochemical staining for AChE by a modification of the staining method of Geneser-Jensen and Blackstadt. Distribution of acetylcholinesterase in the hippocampal region of the guinea pig. I. Entorhinal area parasubiculum, and pre-subiculum, Z Zellforsch 114:460-481(1971). […]

[2] = system: low-buoyancy cortical cells; experiment: Acquisition of neuron competence by low-buoyancy cortical cells in culture; settings: 10% serum or 5 ng/ml PDGF instead of FGF-2
From the text: Tissue dissection: Three areas were dissected from adult rat brains as follows. Rats (170-190 g Fisher 344 males or females, Harlan) were deeply anesthetized with a mixture of ketamine, xylazine, and acepromazine. Animals were decapitated and whole brains removed. First, ˜1.5 mm of each optic nerve were harvested rostral to, but not including, the optic chiasma. The brain was then bisected longitudinally and each hippocampal lobe separated from the overlaying cortical white matter using the natural separation line along the alveus hippocampus. The white matter of the fimbria and subiculum was removed as much as possible. Some white matter remained. Finally, a 1.5 mm wide cortical ribbon containing parietal and frontal segments was dissected longitudinally, proximal to the central fissure. The pial and callosal surfaces were trimmed from each cortical ribbon to remove a majority of the meninges and white matter.
Tissue dissociation and fractionation: Tissues were finely minced and digested in a solution of papain (2.5 U/ml, Worthington), DNAse (250 U/ml, Worthington), and neutral protease (1 U/ml Dispase, Boehringer) dissolved in Hanks balanced salt solution, as described in Palmer T D, Ray J, Gage F H (1995), FGF-2-Responsive Neuronal Progenitors Reside in Proliferative and Quiescent Regions of the Adult Rodent Brain. Mol Cell Neurosci 6:474-486; and Gage F H, Coates P W, Palmer T D, Kuhn H G, Fisher L J, Suhonen J O, Peterson D A, Suhr S T, Ray J (1995), Survival and differentiation of adult neuronal progenitor cells transplanted to the adult brain. Proc Natl Acad Sci USA 92:11879-11883. Cells and tissue fragments were washed 3 times with Dulbecco's Modified Eagles Medium (DMEM) containing 10% […] bovine serum (defined FBS, Hyclone). Whole digested tissue was then suspended in DMEM 10% FBS, filtered through a sterile 107 μm nylon mesh and thoroughly mixed with an equal volume of PERCOLL™ (polyvinylpyrrolidone-coated silica colloids) solution. The PERCOLL™ (polyvinylpyrrolidone-coated silica colloids) solution was made by mixing 9 parts of PERCOLL™ (polyvinylpyrrolidone-coated silica colloids) (Pharmacia) with 1 part 10X phosphate buffered saline (PBS, Irvine Scientific). The cell suspension was then fractionated by centrifugation for 30 minute, 18°C., at 20,000×g. […]
To determine how rapidly cortical cells acquired the competence to differentiate into neurons in culture, cells were isolated and cultured in growth medium for various times, allowed to differentiate in differentiation medium and then evaluated for the presence of neurons. […] Cultures were also treated with BrdU for the first 10 days and the newly generated neurons were evaluated for evidence of cell division. All neurons scored were labeled (>99%).

Molecule | c-fos induction by each neurotrophin (NGF, BDNF, NT-3) ([1]; pretreatment with K-252a (100 nM)) | induction of c-fos mRNA [1] | number of AChE-positive cells (ACSC cultures) | number of TH-positive cells (ACSC cultures) | number of calbindin-positive cells (ACSC cultures) | number of neurons expressing GABA (ACSC cultures) | neuron formation in control cultures [2]
COC(=O)[C@@]1(O)C[C@H]2O[C@]1(C)n1c3ccccc3c3c4c(c5c6ccccc6n2c5c31)C(=O)NC4 [K-252a, reference compound] | blocked |  |  |  |  |  | 
NT-3: Neurotrophin-3 |  | slightly increased | small increases over control cultures | increased | increased | increased | 
PDGF |  |  |  |  |  |  | no neurons were formed
B1 |  | minimal | small increases over control cultures | not |  |  | 
B2 |  | minimal | most effective agent | increased | increased | increased | 
